B1: p75^NTR TMD-AraTM chimera, wild type (MBP - p75^NTR TMD - AraC) [human] / itself (parent)
chain: NLIPVYCSILAAVVVGLVAYIAFKRW

Variants of: B1
Assay: AraTM assay
Conditions: with itself, 100% = WT TMD without drug, read off a plot

In the case of NLAPVYCSILAAVVVGLVAYIAFKRW [chain 1 I3A], the percent of parent (7.5 µM Div17E5) is reported as 97%, the percent of parent (15 µM Div17E5) is reported as 97% and the percent of parent (20 µM Div17E5) is reported as 97%. It also gave a percent of parent (50 µM Div17E5) of 100% and a percent of parent (no drug (0 µM Div17E5)) of 100%.

Variant NLIPAYCSILAAVVVGLVAYIAFKRW [chain 1 V5A] has a percent of parent (7.5 µM Div17E5) of 92%, a percent of parent (15 µM Div17E5) of 93% and a percent of parent (20 µM Div17E5) of 95%. It also gave a percent of parent (50 µM Div17E5) of 92% and a percent of parent (no drug (0 µM Div17E5)) of 97%.

Variant NLIGVYCSILAAVVVGLVAYIAFKRW [chain 1 P4G] has a percent of parent (7.5 µM Div17E5) of 68%, a percent of parent (15 µM Div17E5) of 65% and a percent of parent (20 µM Div17E5) of 55%. For the same variant, the percent of parent (50 µM Div17E5) was 57% and the percent of parent (no drug (0 µM Div17E5)) was 100%.
